Source: US20180214476

System: T1, thrombin cleavable peptide GGLVPRGSGGC
T1 sequence: GGLVPRGSGGC

Substance: thrombin
- cleavage of the peptide by thrombin, LCMS analysis: the peptides were efficiently cleaved after 12 h incubation with 1 U mL^-1 thrombin in Tris buffer
